According to patent US20220380457A1:

Target: FcγRIIIA (CD16α) on human NK cells in whole blood (human) (UniProt P08637)
Experiment: cell-based or functional assay

UniProt P08637, sequence (P08637 17-254): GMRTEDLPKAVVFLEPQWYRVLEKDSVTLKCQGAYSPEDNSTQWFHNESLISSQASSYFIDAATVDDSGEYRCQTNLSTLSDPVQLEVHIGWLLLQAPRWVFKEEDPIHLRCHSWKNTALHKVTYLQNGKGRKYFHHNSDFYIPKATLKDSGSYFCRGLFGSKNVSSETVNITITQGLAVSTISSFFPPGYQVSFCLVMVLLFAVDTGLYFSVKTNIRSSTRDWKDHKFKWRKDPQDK

WT rituximab (soluble antibody, wild type hinge)
NK cell activation in whole human blood, CD16/CD62L staining, FIG. 11A control row, left lower quadrant (downregulation of CD16α): 45.2 | NK cell activation in whole human blood, CD107α/CD69 staining, FIG. 11B control row, right upper quadrant (upregulation of CD107α): 35.3 | NK cell activation with IdeZ, FIG. 11A IdeZ row, left lower quadrant: 8.8 | NK cell activation with IdeZ, FIG. 11B IdeZ row, right upper quadrant: 1.9 | depletion of CD19(+) B cells with IdeZ against WT rituximab in control blood: 63% | residual CD19(+) B cells in blood with IdeZ, FIG. 11C IdeZ row, right lower quadrant: 9.8
